Data: FireProtDB (doi:10.1016/s0167-4838(98)00243-x)
Values joined by “and” are separate entries in the source; they are usually repeats but may differ in a detail not shown here. Identical values can stand only once.

B1: Chitosanase, P33665 (parent)
chain: MHSQHRTARIALAVVLTAIPASLATAGVGYASTQASTAVKAGAGLDDPHKKEIAMELVSSAENSSLDWKAQYKYIEDIGDGRGYTGGIIGFCSGTGDMLELVQHYTDLEPGNILAKYLPALKKVNGSASHSGLGTPFTKDWATAAKDTVFQQAQNDERDRVYFDPAVSQAKADGLRALGQFAYYDAIVMHGPGNDPTSFGGIRKTAMKKARTPAQGGDETTYLNAFLDARKAAMLTEAAHDDTSRVDTEQRVFLKAGNLDLNPPLKWKTYGDPYVINS

Variants of: B1
Details: Streptomyces sp. (strain N174); pH 7; 42.7 °C; Thermal; CD; sodium phosphate 50 mM; transition: 3; reversible: yes(77%); structure 1CHK; whole UniProt chain shown

Question: Which “ddG of mutation (higher = less stable)” value does the source give for MHSQHRTARIALAVVLTAIPASLATAGVGYASTQASTAVKAGAGLDDPHKKEIAMELVSSAENSSLDFKAQYKYIEDIGDGRGYTGGIIGFCSGTGDMLELVQHYTDLEPGNILAKYLPALKKVNGSASHSGLGTPFTKDWATAAKDTVFQQAQNDERDRVYFDPAVSQAKADGLRALGQFAYYDAIVMHGPGNDPTSFGGIRKTAMKKARTPAQGGDETTYLNAFLDARKAAMLTEAAHDDTSRVDTEQRVFLKAGNLDLNPPLKWKTYGDPYVINS [W68F] here?
Answer: 3.56 kcal/mol

Same assay, conditions: Streptomyces sp. (strain N174); pH 7; 43.2 °C; Thermal; Fluorescence; sodium phosphate 50 mM; reversible: yes(75%); structure 1CHK; whole UniProt chain shown

Question: For MHSQHRTARIALAVVLTAIPASLATAGVGYASTQASTAVKAGAGLDDPHKKEIAMELVSSAENSSLDFKAQYKYIEDIGDGRGYTGGIIGFCSGTGDMLELVQHYTDLEPGNILAKYLPALKKVNGSASHSGLGTPFTKDWATAAKDTVFQQAQNDERDRVYFDPAVSQAKADGLRALGQFAYYDAIVMHGPGNDPTSFGGIRKTAMKKARTPAQGGDETTYLNAFLDARKAAMLTEAAHDDTSRVDTEQRVFLKAGNLDLNPPLKWKTYGDPYVINS [W68F], which “ddG of mutation (higher = less stable)” value is on record?
Answer: 4.43 kcal/mol

Same assay, conditions: Streptomyces sp. (strain N174); pH 7; 52.2 °C; Thermal; CD; sodium phosphate 50 mM; transition: 3; reversible: yes(77%); structure 1CHK; whole UniProt chain shown

Question: With MHSQHRTARIALAVVLTAIPASLATAGVGYASTQASTAVKAGAGLDDPHKKEIAMELVSSAENSSLDFKAQYKYIEDIGDGRGYTGGIIGFCSGTGDMLELVQHYTDLEPGNILAKYLPALKKVNGSASHSGLGTPFTKDWATAAKDTVFQQAQNDERDRVYFDPAVSQAKADGLRALGQFAYYDAIVMHGPGNDPTSFGGIRKTAMKKARTPAQGGDETTYLNAFLDARKAAMLTEAAHDDTSRVDTEQRVFLKAGNLDLNPPLKWKTYGDPYVINS [W68F] as the variant, how does the “ddG of mutation (higher = less stable)” value read?
Answer: 1.76 kcal/mol

Same assay, conditions: Streptomyces sp. (strain N174); pH 7; Thermal; CD; sodium phosphate 50 mM; transition: 3; reversible: yes(77%); structure 1CHK; whole UniProt chain shown

Question: What does the source list for MHSQHRTARIALAVVLTAIPASLATAGVGYASTQASTAVKAGAGLDDPHKKEIAMELVSSAENSSLDFKAQYKYIEDIGDGRGYTGGIIGFCSGTGDMLELVQHYTDLEPGNILAKYLPALKKVNGSASHSGLGTPFTKDWATAAKDTVFQQAQNDERDRVYFDPAVSQAKADGLRALGQFAYYDAIVMHGPGNDPTSFGGIRKTAMKKARTPAQGGDETTYLNAFLDARKAAMLTEAAHDDTSRVDTEQRVFLKAGNLDLNPPLKWKTYGDPYVINS [W68F]?
Answer: Tm: 45.2 °C; change of melting temperature, mutant - wild type (higher = more stable): -7 °C; unfolding enthalpy (van 't Hoff): 80 kcal/mol

Same assay, conditions: Streptomyces sp. (strain N174); pH 7; Thermal; Fluorescence; sodium phosphate 50 mM; reversible: yes(75%); structure 1CHK; whole UniProt chain shown

Question: Which results are given for MHSQHRTARIALAVVLTAIPASLATAGVGYASTQASTAVKAGAGLDDPHKKEIAMELVSSAENSSLDFKAQYKYIEDIGDGRGYTGGIIGFCSGTGDMLELVQHYTDLEPGNILAKYLPALKKVNGSASHSGLGTPFTKDWATAAKDTVFQQAQNDERDRVYFDPAVSQAKADGLRALGQFAYYDAIVMHGPGNDPTSFGGIRKTAMKKARTPAQGGDETTYLNAFLDARKAAMLTEAAHDDTSRVDTEQRVFLKAGNLDLNPPLKWKTYGDPYVINS [W68F]?
Answer: Tm: 36.2 °C; change of melting temperature, mutant - wild type (higher = more stable): -7 °C; unfolding enthalpy (van 't Hoff): 196 kcal/mol

Same assay, conditions: Streptomyces sp. (strain N174); pH 7; 42.7 °C; Thermal; CD; sodium phosphate 50 mM; transition: 3; reversible: yes(79%); structure 1CHK; whole UniProt chain shown

Question: With MHSQHRTARIALAVVLTAIPASLATAGVGYASTQASTAVKAGAGLDDPHKKEIAMELVSSAENSSLDWKAQYKYIEDIGDGRGYTGGIIGFCSGTGDMLELVQHYTDLEPGNILAKYLPALKKVNGSASHSGLGTPFTKDFATAAKDTVFQQAQNDERDRVYFDPAVSQAKADGLRALGQFAYYDAIVMHGPGNDPTSFGGIRKTAMKKARTPAQGGDETTYLNAFLDARKAAMLTEAAHDDTSRVDTEQRVFLKAGNLDLNPPLKWKTYGDPYVINS [W141F] as the variant, how does the “ddG of mutation (higher = less stable)” value read?
Answer: 3.91 kcal/mol

Same assay, conditions: Streptomyces sp. (strain N174); pH 7; 43.2 °C; Thermal; Fluorescence; sodium phosphate 50 mM; reversible: yes(77%); structure 1CHK; whole UniProt chain shown

Question: With MHSQHRTARIALAVVLTAIPASLATAGVGYASTQASTAVKAGAGLDDPHKKEIAMELVSSAENSSLDWKAQYKYIEDIGDGRGYTGGIIGFCSGTGDMLELVQHYTDLEPGNILAKYLPALKKVNGSASHSGLGTPFTKDFATAAKDTVFQQAQNDERDRVYFDPAVSQAKADGLRALGQFAYYDAIVMHGPGNDPTSFGGIRKTAMKKARTPAQGGDETTYLNAFLDARKAAMLTEAAHDDTSRVDTEQRVFLKAGNLDLNPPLKWKTYGDPYVINS [W141F] as the variant, how does the “ddG of mutation (higher = less stable)” value read?
Answer: 4.27 kcal/mol

Same assay, conditions: Streptomyces sp. (strain N174); pH 7; 52.2 °C; Thermal; CD; sodium phosphate 50 mM; transition: 3; reversible: yes(79%); structure 1CHK; whole UniProt chain shown

Question: With MHSQHRTARIALAVVLTAIPASLATAGVGYASTQASTAVKAGAGLDDPHKKEIAMELVSSAENSSLDWKAQYKYIEDIGDGRGYTGGIIGFCSGTGDMLELVQHYTDLEPGNILAKYLPALKKVNGSASHSGLGTPFTKDFATAAKDTVFQQAQNDERDRVYFDPAVSQAKADGLRALGQFAYYDAIVMHGPGNDPTSFGGIRKTAMKKARTPAQGGDETTYLNAFLDARKAAMLTEAAHDDTSRVDTEQRVFLKAGNLDLNPPLKWKTYGDPYVINS [W141F] as the variant, how does the “ddG of mutation (higher = less stable)” value read?
Answer: 1.89 kcal/mol

Same assay, conditions: Streptomyces sp. (strain N174); pH 7; Thermal; CD; sodium phosphate 50 mM; transition: 3; reversible: yes(79%); structure 1CHK; whole UniProt chain shown

Question: Which results are given for MHSQHRTARIALAVVLTAIPASLATAGVGYASTQASTAVKAGAGLDDPHKKEIAMELVSSAENSSLDWKAQYKYIEDIGDGRGYTGGIIGFCSGTGDMLELVQHYTDLEPGNILAKYLPALKKVNGSASHSGLGTPFTKDFATAAKDTVFQQAQNDERDRVYFDPAVSQAKADGLRALGQFAYYDAIVMHGPGNDPTSFGGIRKTAMKKARTPAQGGDETTYLNAFLDARKAAMLTEAAHDDTSRVDTEQRVFLKAGNLDLNPPLKWKTYGDPYVINS [W141F]?
Answer: change of melting temperature, mutant - wild type (higher = more stable): -7.1 °C and -7.5 °C; unfolding enthalpy (van 't Hoff): 170 kcal/mol and 80 kcal/mol
